The nature of series [1]: pH stability assay (buffers pH 5.4 and 7.4, UHPLC-HRMS). Format: physicochemical. The following applies: 37 °C, average of two replicates; for Stability pH 7.4, % residual compound: pH 7.4 PBS. Here is the method: The pH stability assay was performed by incubating compounds 1–4 at 37 °C in buffers at pH 5.4 and 7.4 under gentle shaking conditions. More specifically, a solution of 20 mM AcONa and 1 mM EDTA in mQ water was used as a pH 5.4 buffer. A solution of PBS tablets in mQ water was used as a pH 7.4 buffer. A 1 mM stock solution of compounds 1–4 in dry DMSO was prepared and a […] solution was then obtained by dilution of 5.85 μL of the stock solution in 44.15 μL of dry DMSO. Then, 6 μL of the […] compound solution was diluted into 135 μL of the desired buffer, and the solution was incubated at 37 °C under gently shaking conditions. Samples aliquots (10 μL) were taken out at 15, 30 min and 1, 2, and 4 h and quenched with 10 μL of acetonitrile. The solutions were then injected in UHPLC-HRMS to monitor the stability of compounds 1–4 under different pH conditions. UHPLC-MS analyses were carried out as previously described for the Cathepsin B cleavage assay. The percentage of the residual compound was calculated as described above.
The stability of compounds 1–4 and of the free drug PTX was evaluated in vitro by UHPLC-Orbitrap analysis incubating the samples at 37 °C in buffer solutions at pH 5.4, to simulate the pH inside the cancer cells, and at physiological pH 7.4. The same buffer of the Cathepsin B cleavage assay was used for the test at pH 5.4. The percentage of residual compounds 1–4 was measured over time by calculating the ratio between the areas of the peak of the full compound at the desired time point and at time zero, and the results were compared with the percentage of residual compounds 1–4 calculated during the Cathepsin B cleavage assay (Tables S6).

Series [2] is described as follows: Plasma stability assay, rat plasma. The following applies: Sprague Dawley, 37 °C, read-out: Plasma stability (matrix: rat) % remaining. The format is in vitro ADME, rat (Sprague Dawley). The method, then:
(§1) The plasma stability assays were performed by Selvita SA (Krakow, Poland) following the protocol described in the Supporting Information. For the use of human plasma, consent was obtained from the subject or from the next of kin.
(§2) 9. Plasma stability assays
(§3) Protocol for full plasma assay: a stock solution of compounds 1-4 in DMSO was incubated in human (Anticoagulants: Na Heparin; Gender: Pooled; Cat. No: IPLANAH100ML; Lot: 37921; Supplier:
(§4) Innovative Research) and rat (Strain: Sprague Dawley; Anticoagulants: Na Heparin; Cat. No:
(§5) IGRTSDPLANAH100ML; Supplier: Innovative Research) plasma at a final concentration of 1 μM (final concentration of DMSO = 1 %). The samples were incubated at 37 °C with a shaking of 450 rpm. Aliquots of the samples were analyzed at time 0, 30 minutes, 2 and 4 hours by LC-MS/MS […]
(§6) The areas of the peak of the compounds 1-4 in the LC chromatogram were used to evaluate stability profile. The percentage of residual compounds 1-4 was calculated as the ratio between the area of the peak of the analyte and the area of the internal standard.
(§7) % residual compound = Area analyte ∙ 100
(§8) Table S7. LC-MS data of the stability assays in plasma extracts of compound 1.
(§9) Stability assays compound 1
(§10) Time Plasma stability Plasma stability S9 stability S9 stability
(§11) (min.) (matrix: rat) (matrix: human) Time (min.) (matrix: rat) (matrix: human) % remaining % remaining % remaining % remaining
(§12) Table S8. LC-MS data of the stability assays in plasma extracts of compound 2.
(§13) Stability assays compound 2

A short description of series [3]: Plasma stability assay, human plasma. The format is in vitro ADME. Particulars: both sexes, 37 °C, read-out: Plasma stability (matrix: human) % remaining. The method, then:
as §1, §2, §3, §4, §5, §6, §7, §8, §9, §10, §11, §12, §13

Series [4] in a line: Liver S9 fraction stability assay, rat. Format: in vitro ADME. The following applies: male, liver S9 fraction, 37 °C, read-out: S9 stability (matrix: rat) % remaining. Here is the method: as §1
(§14) 9. Plasma stability assays […]
(§15) Protocol for S9 fraction: a stock solution of compounds 1-4 in DMSO was incubated in human (male, pooled, commercially obtained from Xeno-tech lot: 2310104) and rat (male, pooled, commercially obtained from Xeno-tech (lot: 2210317)) S9 fraction at a final concentration of 1 μM (final concentration of DMSO = 0.5 %). The samples were incubated at 37 °C with a shaking of 450 rpm.
(§16) Aliquots of the samples were analyzed at time 0, 30 and 90 minutes by LC-MS/MS analysis.
as §6, §7, §8, §9, §10, §11, §12, §13

Series [5] is described as follows: Liver S9 fraction stability assay, human. The following applies: male, liver S9 fraction, 37 °C, read-out: S9 stability (matrix: human) % remaining. The format is in vitro ADME. Here is the method:
as §1, §14, §15, §16, §6, §7, §8, §9, §10, §11, §12, §13

Read-outs that look alike come from different tables or passages of the source.

For the compound `CC(=O)O[C@H]1C(=O)[C@@]2(C)[C@H]([C@H](OC(=O)c3ccccc3)[C@]3(O)C[C@H](OC(=O)[C@H](OC(=O)N(C)CCN(C)C(=O)OCc4ccc(NC(=O)[C@H](CCCNC(N)=O)NC(=O)[C@@H](NC(=O)OCC5c6ccccc6-c6ccccc65)C(C)C)cc4)[C@@H](NC(=O)c4ccccc4)c4ccccc4)C(C)=C1C3(C)C)[C@]1(OC(C)=O)CO[C@@H]1C[C@@H]2O` [Compound 3, Fmoc-VCit-PABC-diamine-PTX], the remaining at 4 h, 4.98 µM worked out at 92% in series [1] (PBS pH 7.4, pH 7.4, pH 7.4 PBS, 240 min, read-out: Stability pH 7.4, % residual compound) and 89.9% in series [1] (acetate/EDTA buffer pH 5.4, pH 5.4, pH 5.4 buffer, 240 min (4 h), read-out: Stability pH 5.4, % residual compound). Moreover, the remaining at 2 h, 4.98 µM in series [1] (acetate/EDTA buffer pH 5.4, pH 5.4, pH 5.4 buffer, 120 min, read-out: Stability pH 5.4, % residual compound) worked out at 96.6%. In series [1] (pH 5.4 buffer, 30 min), the “Stability pH 5.4, % residual compound” value is listed as 96.15%. Moreover, the figures for the “Stability pH 7.4, % residual compound” value in series [1] (30 min) and in series [1] (120 min) were 95.79% and 95.93%, respectively. Besides, the remaining at 0.5 h, 1 μM in series [2] (30 min) came out at 123%; in series [3] (30 min) it was 102%; in series [4] (30 min), 86.5%; in series [5] (30 min), 133%. For the same compound, the remaining at 2 h, 1 μM in series [2] (120 min) was 113%; in series [3] (120 min), 98.3%. The values for the remaining at 4 h, 1 μM in series [2] (240 min (4 h)) and in series [3] (240 min (4 h)) were 118% and 77.1%, respectively. Also, the values for the remaining at 1.5 h, 1 μM in series [4] (90 min (1.5 h)) and in series [5] (90 min (1.5 h)) were 42.6% and 95.2%, respectively.

(Values after PMC12444563 (ACS Omega, 2025).)
